{
  "source": "paper PMC3419727",
  "about": "“Identifying the Hotspots on the Top Faces of WD40-Repeat Proteins from Their Primary Sequences by β-Bulges and DHSW Tetrads” (PLoS ONE, 2012)",
  "test_in_all_cases": "ITC; Fep1 (~1.4 mM) injected, 2 µl each time, into Tup11 WT or mutant (~0.2 mM); 25°C; 1×PBS pH 7.4, 150 mM NaCl; iTC200 (MicroCal); Fep1 into buffer subtracted as background",
  "conditions_in_all_cases": "both partners purified",
  "key": {"[1]": {"biological_target": "T1, S. japonicus Tup11 WD40 domain (301–630) Phe557Ala (S. japonicus, UniProt B6JV84 301-630, Phe557Ala)", "T1 construct": "Tup11, S. japonicus, WD40 domain, amino acids 301-630", "T1 sequence (looked up)": "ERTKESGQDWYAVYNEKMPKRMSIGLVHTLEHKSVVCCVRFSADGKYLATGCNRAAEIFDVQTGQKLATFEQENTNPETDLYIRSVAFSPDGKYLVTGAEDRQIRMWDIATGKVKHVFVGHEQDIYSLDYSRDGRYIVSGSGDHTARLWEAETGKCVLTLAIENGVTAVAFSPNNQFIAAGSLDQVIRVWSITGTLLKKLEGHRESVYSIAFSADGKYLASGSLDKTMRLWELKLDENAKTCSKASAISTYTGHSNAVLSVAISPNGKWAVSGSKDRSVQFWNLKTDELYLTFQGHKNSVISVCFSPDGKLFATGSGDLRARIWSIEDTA"}, "[2]": {"biological_target": "T2, S. japonicus Tup11 WD40 domain (301–630) Tyr382Ala (S. japonicus, UniProt B6JV84 301-630, Tyr382Ala)", "T2 construct": "Tup11, S. japonicus, WD40 domain, amino acids 301-630", "T2 sequence (looked up)": "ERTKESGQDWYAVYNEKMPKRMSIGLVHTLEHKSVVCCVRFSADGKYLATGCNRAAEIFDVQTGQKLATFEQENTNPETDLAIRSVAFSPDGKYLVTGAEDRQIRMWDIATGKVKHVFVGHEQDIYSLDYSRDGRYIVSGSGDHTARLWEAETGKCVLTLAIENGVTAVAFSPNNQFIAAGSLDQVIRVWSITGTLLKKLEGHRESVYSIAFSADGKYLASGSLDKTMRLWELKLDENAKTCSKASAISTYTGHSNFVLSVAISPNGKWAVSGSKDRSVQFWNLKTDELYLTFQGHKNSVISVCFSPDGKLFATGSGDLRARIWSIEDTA"}, "[3]": {"biological_target": "T3, S. japonicus Tup11 WD40 domain (amino acids 301–630), wild type (S. japonicus, UniProt B6JV84 301-630)", "T3 construct": "Tup11, S. japonicus, WD40 domain, amino acids 301-630; also called Tup11 WT", "T3 sequence (looked up)": "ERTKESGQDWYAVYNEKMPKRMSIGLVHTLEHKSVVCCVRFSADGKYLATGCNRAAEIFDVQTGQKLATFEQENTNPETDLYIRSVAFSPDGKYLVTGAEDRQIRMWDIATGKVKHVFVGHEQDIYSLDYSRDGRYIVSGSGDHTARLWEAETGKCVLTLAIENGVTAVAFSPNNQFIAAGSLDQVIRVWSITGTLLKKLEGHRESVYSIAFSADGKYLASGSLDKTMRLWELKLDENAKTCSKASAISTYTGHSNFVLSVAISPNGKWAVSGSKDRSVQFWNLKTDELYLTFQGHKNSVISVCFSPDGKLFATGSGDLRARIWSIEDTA"}, "[4]": {"biological_target": "T4, S. japonicus Tup11 WD40 domain (301–630) Thr467Ala (S. japonicus, UniProt B6JV84 301-630, Thr467 substituted by Ala)", "T4 construct": "Tup11, S. japonicus, WD40 domain, amino acids 301-630", "T4 sequence (looked up)": "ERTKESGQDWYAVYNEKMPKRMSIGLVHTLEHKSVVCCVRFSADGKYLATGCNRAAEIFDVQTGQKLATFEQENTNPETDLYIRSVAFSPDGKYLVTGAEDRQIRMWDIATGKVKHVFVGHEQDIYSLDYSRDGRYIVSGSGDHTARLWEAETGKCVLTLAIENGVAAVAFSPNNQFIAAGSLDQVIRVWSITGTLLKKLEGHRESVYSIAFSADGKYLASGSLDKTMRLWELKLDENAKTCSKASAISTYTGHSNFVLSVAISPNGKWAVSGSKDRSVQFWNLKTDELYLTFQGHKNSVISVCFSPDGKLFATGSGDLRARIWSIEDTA"}, "[5]": {"biological_target": "T5, S. japonicus Tup11 WD40 domain (301–630) Leu559Ala (S. japonicus, UniProt B6JV84 301-630, Leu559Ala)", "T5 construct": "Tup11, S. japonicus, WD40 domain, amino acids 301-630", "T5 sequence (looked up)": "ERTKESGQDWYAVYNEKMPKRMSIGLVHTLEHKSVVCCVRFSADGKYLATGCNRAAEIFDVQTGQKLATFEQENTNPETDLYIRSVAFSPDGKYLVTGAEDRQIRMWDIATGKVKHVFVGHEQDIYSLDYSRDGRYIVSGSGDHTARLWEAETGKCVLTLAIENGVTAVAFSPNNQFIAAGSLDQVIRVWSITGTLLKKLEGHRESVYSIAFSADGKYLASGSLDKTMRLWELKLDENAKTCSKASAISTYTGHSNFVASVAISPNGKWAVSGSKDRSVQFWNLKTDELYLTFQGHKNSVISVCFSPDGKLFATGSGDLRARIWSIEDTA"}},
  "data": [
    {"binder": "C-terminal region of S. pombe Fep1 (amino acids 319–564) (domain or fragment, UniProt Q10134 319-564, looked up, Fep1, GATA-factor, S. pombe, C-terminal region, amino acids 319-564) AAGEPDNNGKVYYSYGPTQEQSILPLPENKHEGLPPYQNEYVPNGIRANQVVYPGQLVAVGNDSSKQLSESTTSNTDNNGVATANQSNPLGMKFHLPPILPVGESVCLPPRTSAKPRIAEGIASLLNPEEPPSNSDKQPSMSNGPKSEVSPSQSQQAPLIQSSTSPVSLQFPPEVQGSNVDKRNYALNVLSQLRSQHDLMIQELHNLNQHIQQIDEWLRSSDNENMASEHIKSSTPAVVASGALQT", "values": [
      {"measurement": "binding result", "setting": "[1]", "result": "binds"},
      {"measurement": "reduction of binding free energy against wild type", "setting": "[2]", "result": "~1.7", "unit": "kcal/mol"},
      {"measurement": "Kd", "setting": "[3]", "result": "~10", "unit": "µM"},
      {"measurement": "binding result", "setting": "[4]", "result": "binds"},
      {"measurement": "reduction of binding free energy against wild type", "setting": "[5]", "result": "~1", "unit": "kcal/mol"}
    ]}
  ]
}
